Source: publication PMC11840924, “Identifying Allosteric Hotspots in Mycobacterium tuberculosis cAMP Receptor Protein through Structural Homology” (Biochemistry, 2025)

What was measured:
[1] = molecular target: T1, CRPMTB wildtype (Mycobacterium tuberculosis, UniProt P9WMH3 1-224); test: fluorescence anisotropy; 1 mM cAMP; specific 1:1 transition; 75 mM KCl, 50 mM HEPES, 1 mM EDTA, pH 7.6; […]; temperature not stated; conditions: protein: recombinant; tags: His-tag (pET-3a); chain copies: 2; label: fluorescein; blunt
T1 sequence: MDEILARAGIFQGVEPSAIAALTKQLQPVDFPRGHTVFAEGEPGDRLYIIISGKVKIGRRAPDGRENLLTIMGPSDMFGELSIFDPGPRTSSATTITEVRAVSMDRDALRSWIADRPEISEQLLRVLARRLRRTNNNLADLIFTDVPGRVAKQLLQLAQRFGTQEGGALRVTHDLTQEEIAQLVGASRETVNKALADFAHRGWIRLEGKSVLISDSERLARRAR

[2] = molecular target: T1, CRPMTB wildtype; test: fluorescence anisotropy; no cAMP; specific 1:1 transition; 75 mM KCl, 50 mM HEPES, 1 mM EDTA, pH 7.6; […]; temperature not stated; conditions: protein: recombinant; tags: His-tag (pET-3a); chain copies: 2; label: fluorescein; blunt

B1: serC32 full-site promoter (dsDNA)
DNA 1: GCGCGTAGTGTGAACAAGCTCACATGCAAGCC
DNA 2: GGCTTGCATGTGAGCTTGTTCACACTACGCGC
[1]
  Ka: 2.81 ± 0.01 10^8 M-1
[2]
  Ka: 1.87 ± 0.01 10^8 M-1
